Assay results published in patent US20250277030A1 (Zymeworks, published 2025).

Assays:
[1] = molecular target: T1, human sodium-dependent phosphate transporter 2B (NaPi2b) (human, UniProt O95436 1-690); assay: flow cytometry, IGROV-1 cells (endogenous NaPi2b); apparent Kd
T1 construct: UniProt ID is given as 095436 [sic]; also called hNaPi2b; Hu NaPi2b
T1 sequence: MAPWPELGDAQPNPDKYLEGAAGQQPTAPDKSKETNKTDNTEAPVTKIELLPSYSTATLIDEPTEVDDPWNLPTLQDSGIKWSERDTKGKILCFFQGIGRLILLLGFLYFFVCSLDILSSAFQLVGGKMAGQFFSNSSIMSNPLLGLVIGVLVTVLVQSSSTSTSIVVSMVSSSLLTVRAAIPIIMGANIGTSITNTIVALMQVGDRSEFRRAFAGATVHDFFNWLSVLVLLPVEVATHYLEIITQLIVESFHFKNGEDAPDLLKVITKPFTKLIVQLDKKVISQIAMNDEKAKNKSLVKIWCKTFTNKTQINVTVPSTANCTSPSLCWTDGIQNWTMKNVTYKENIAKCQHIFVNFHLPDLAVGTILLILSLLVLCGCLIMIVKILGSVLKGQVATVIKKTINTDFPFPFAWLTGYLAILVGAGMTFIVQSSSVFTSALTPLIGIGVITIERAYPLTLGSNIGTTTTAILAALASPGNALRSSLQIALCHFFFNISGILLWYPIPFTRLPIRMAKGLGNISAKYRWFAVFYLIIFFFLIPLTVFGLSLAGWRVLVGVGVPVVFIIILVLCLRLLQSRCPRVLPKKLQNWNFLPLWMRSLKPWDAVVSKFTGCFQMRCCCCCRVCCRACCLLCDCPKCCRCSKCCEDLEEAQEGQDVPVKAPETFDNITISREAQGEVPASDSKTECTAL
Experimental: Briefly, cells were seeded at 50,000 cells/well in conical-bottom 96-well plates and treated with test antibody for 24 hours at 4° C. to prevent internalization. […] Following incubation, cells were washed and stained with anti-Human IgG Fc AF647 conjugate (Jackson Immuno Research Labs, West Grove, PA; Cat. No. 109-605-098) at 4° C. for 30 min. Following incubation and washing, fluorescence was detected by flow cytometry on a BD LSRFortessa™ Cell Analyzer (BD Biosciences, Franklin Lake, NJ) with 1,000 minimum events collected per well. The AF647/APC-A GeoMean (fluorescence signal geometric mean, proportional to anti-Human AF647 binding) was calculated for the live cell population using FlowJo™ Version 10.8.1 (BD Biosciences, Franklin Lake, NJ) and plotted for each test antibody using GraphPad Prism Version 9 (GraphPad Software, San Diego, CA).
The ability of the humanized antibody variants v38591 and v29456 to bind to NaPi2b expressed on cells was assessed on endogenous NaPi2b-expressing tumor cell lines IGROV-1 (ovarian adenocarcinoma) and TOV-21G (ovarian carcinoma) by flow cytometry.
Cellular binding was performed according to methods described in Example 13.

[2] = molecular target: T1, human sodium-dependent phosphate …; assay: cell-based or functional assay
cynomolgus monkey NaPi2b = molecular target: T2, cynomolgus monkey NaPi2b (cynomolgus monkey, UniProt O95436 1-690 (human entry)); assay: flow cytometry, HEK293-6e cells transfected with cynomolgus NaPi2b; apparent Kd
T2 construct: Transiently expressed on HEK293-6e cells; also called Cyno NaPi2b
T2 chain: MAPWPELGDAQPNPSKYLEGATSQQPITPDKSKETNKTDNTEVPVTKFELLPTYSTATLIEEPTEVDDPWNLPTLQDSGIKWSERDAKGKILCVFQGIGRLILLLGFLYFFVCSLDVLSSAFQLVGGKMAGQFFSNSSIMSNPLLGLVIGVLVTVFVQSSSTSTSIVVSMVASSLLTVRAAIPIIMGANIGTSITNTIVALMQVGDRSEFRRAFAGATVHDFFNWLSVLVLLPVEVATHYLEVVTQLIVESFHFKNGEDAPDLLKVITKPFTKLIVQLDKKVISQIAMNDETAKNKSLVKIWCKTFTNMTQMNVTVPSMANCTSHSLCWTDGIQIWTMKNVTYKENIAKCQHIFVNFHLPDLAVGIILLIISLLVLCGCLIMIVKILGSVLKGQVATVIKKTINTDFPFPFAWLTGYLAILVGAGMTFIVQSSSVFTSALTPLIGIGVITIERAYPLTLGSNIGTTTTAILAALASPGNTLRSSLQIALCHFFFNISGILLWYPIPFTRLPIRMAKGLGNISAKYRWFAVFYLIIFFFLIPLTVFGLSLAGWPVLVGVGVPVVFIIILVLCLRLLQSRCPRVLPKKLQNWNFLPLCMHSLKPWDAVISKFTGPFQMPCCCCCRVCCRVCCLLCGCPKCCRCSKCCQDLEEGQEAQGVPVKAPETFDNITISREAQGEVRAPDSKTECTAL
Experimental: The binding cross-reactivity of humanized antibody variant v29456 to human, cynomolgus and mouse NaPi2b was assessed by flow cytometry using HEK293-6e transfected cells.
Briefly, HEK293-6e cells were transfected for ˜24 hours to transiently express human NaPi2b, cynomolgus or mouse NaPi2b, at 1 μg of DNA per 1 million cells. Following transfection, 50,000 cells per well were seeded in V-bottom 96-well plates and incubated with 200 nM of primary antibody for 18-24 hours at 4° C. to prevent internalization. Post-incubation, cells were washed and stained with anti-Human IgG Fc AF647 conjugate (Jackson Immuno Research Labs, West Grove, PA, Cat. No. 109-605-098, Lot. No. 124868) at 4° C. for 1 hour. Following staining and washing, fluorescence was detected by flow cytometry on BD LSRFortessa™ Cell Analyzer (BD Biosciences, Franklin Lake, NJ) with 10,000 minimum events collected per well. The AF647/APC-A GeoMean (fluorescence signal geometric mean, proportional to anti-Human AF647 binding) was calculated for the live singlet cell population for each primary antibody using FlowJo™ v8 software (BD Biosciences, Franklin Lake, NJ). The Bmax and Kd of each primary antibody were calculated using GraphPad Prism Version 9 (GraphPad Software, San Diego, CA)

[3] = molecular target: T3, KLH (Sigma-Aldrich, H8283); assay: non-specific binding ELISA, KLH coated at 5 µg/mL, antibody at 100 nM
T3 construct: also called keyhole limpet hemocyanin
Experimental: NS-ELISA was carried out in Corning®96-well EIA/RIA Easy Wash™ Clear Flat Bottom Polystyrene High Bind Microplate coated overnight at 4° C. with 50 μL of Heparin (Sigma, H3149) diluted with 50 mM sodium carbonate pH 9.6 to a final concentration of 250 μg/mL. The plate was incubated for 2 days at room temperature, wells that were coated with heparin were not covered to allow air dry. […] 50 μL each of insulin, KLH, dsDNA and ssDNA were added to a 96 well plate, followed by the incubation at 37° C. for 2 h. The coating materials were removed, and the plate was blocked with 200 μL of Gibco™ PBS pH7.4, 0.1% Tween®20, and incubated for 1 h at room temperature with shaking at 200 rpm. The plate was washed 3 times with Gibco™ PBS pH7.4, 0.1% Tween 20. […] Reactions were stopped after approximately 10 minutes by adding 100 μL of 1 M HCl to each well, and absorbance was read at 450 nm. Binding scores were calculated as the ratio of the ELISA signal of the antibody (antibody-treated) to the signal of a well containing buffer instead of the primary antibody (untreated). The cutoffs considered for each binding molecule (ssDNA, KLH, insulin, dsDNA and heparin) were internally calculated, based on the average of Zymeworks Inc. produced antibodies and antibodies benchmarks published in the literature.

B1: v29456 humanized anti-NaPi2b antibody (H1L2) (antibody, human IgG1, kappa)
heavy: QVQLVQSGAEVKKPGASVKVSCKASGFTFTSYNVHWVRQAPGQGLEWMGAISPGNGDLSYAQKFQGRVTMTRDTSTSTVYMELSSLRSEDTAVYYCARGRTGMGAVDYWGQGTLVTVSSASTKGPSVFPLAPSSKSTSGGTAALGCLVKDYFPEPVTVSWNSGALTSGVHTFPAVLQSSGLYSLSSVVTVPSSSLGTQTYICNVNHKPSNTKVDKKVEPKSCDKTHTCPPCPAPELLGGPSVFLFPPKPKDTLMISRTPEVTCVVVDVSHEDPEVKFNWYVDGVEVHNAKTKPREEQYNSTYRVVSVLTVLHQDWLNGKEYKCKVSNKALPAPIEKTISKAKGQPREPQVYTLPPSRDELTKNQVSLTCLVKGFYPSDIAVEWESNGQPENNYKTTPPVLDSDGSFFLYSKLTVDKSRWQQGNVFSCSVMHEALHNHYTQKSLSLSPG
light: DVQMTQSPSSLSASVGDRVTITCRASQDVYSYLNWYQQKPGKAVKLLIYYTSRLQSGVPSRFSGSGSGTDYTLTISSLQPEDFATYYCQQYNIFPWTFGQGTKLEIKRTVAAPSVFIFPPSDEQLKSGTASVVCLLNNFYPREAKVQWKVDNALQSGNSQESVTEQDSKDSTYSLSSTLTLSKADYEKHKVYACEVTHQGLSSPVTKSFNRGEC
Kd [1]: 1.28 nM | Internalized Fluorescence Fold-Over Palivizumab, HCC-78, 5 hrs [2]: 25.3 fold | Internalized Fluorescence Fold-Over Palivizumab, HCC-78, 24 hrs [2]: 59.9 fold | Internalized Fluorescence Fold-Over Palivizumab, NCI-H441, 5 hrs [2]: 2.4 fold | Internalized Fluorescence Fold-Over Palivizumab, NCI-H441, 24 hrs [2]: 4 fold | Kd (cynomolgus monkey NaPi2b): 3.2 nM | NS-ELISA binding score (ratio of signal between antibody-treated and untreated) [3]: 1.37 ratio
